For test [1], the target named is T1, human CD40 expressed on the cell surface (human, UniProt P25942 21-277).
T1 construct: whole, on cells; Used for transfected CHO-K cells, for transfected Jurkat reporter cells (Met1-Gln277) and for the natural CD40 on Ramos cells and iDC; also called CHO-K-huCD40 cells; CHO cells expressing CD40
The experiment in a line: flow cytometry on CHO-K-huCD40 cells, APC anti-human IgG secondary antibody. On the procedure:
(§1) 100 μL of diluted anti-CD40 candidate antibody prepared in example 4.3 was added to the 96-well plate. After incubation at 4° C. for 30 min, the cells were washed 5 times with a FACS buffer (PBS+5% FBS+2% BSA), added with 100 μL of APC-labeled anti-human IgG secondary antibody, and then incubated at 4° C. for 30 min. The cells were then washed and tested by flow cytometry.
(In general: In flow cytometry, cells or beads pass a laser one at a time.)

For test [2], the target named is T2, full-length mouse CD40 expressed on CHO-K cells (mouse, UniProt P27512 20-289).
T2 construct: whole, on cells; also called CHO-K-mouseCD40 cells; mouse CD40 antigen
The experiment in a line: flow cytometry on CHO-K-mouseCD40 cells, FITC anti-human IgG Fc secondary antibody. On the procedure: The cross-reactivity of the affinity variant candidate antibody prepared in example 4.3 to mouse CD40 was tested using artificially constructed CHO-K cells expressing full-length mouse CD40 (Uniprot #P27512) (CHO-K-mouseCD40 cells). The CHO-K cells expressing mouse CD40 were seeded into a 96-well plate at 1.0×10⁵ cells/well. 100 μL of diluted affinity variant candidate antibody and the control antibody (APX005) were added to the 96-well plate, respectively. […] The cells were then washed and tested by flow cytometry.

Test [3] addresses T1, human CD40 expressed on the cell surface. The experiment in a line: cell-based or functional assay.
Test [4] deals with T3, P17-His protein (human CD40 antigen) (human, UniProt P25942 21-193, limits assumed).
T3 construct: also called human CD40 antigen (P17-His)
The experiment in a line: BLI (Fortebio Octet RED96), antibody on Protein A sensor, P17-His 5-40 nM. On the procedure: In this example, the affinity of C8 parent antibody (C8-WT) and affinity variant antibody for human CD40 antigen (P17-His) was detected using an Fortebio Octet RED96 instrument.
Material preparation: 1 g of BSA and 500 μL of Tween 20 were added to 1000 mL of 1×PBS and mixed uniformly. The mixture was filtered, and then subpackaged and stored. 0.1 mL of glycine solution (0.1 M, pH 2.0) was pipetted, 0.9 mL of ultrapure water was added, and the mixture was mixed uniformly. The antibodies were diluted to 10 μg/mL with a KB buffer, and the antigens were diluted with a KB buffer to serial concentration gradients, i.e., 40 nM, 20 nM, 10 nM, 5 nM and 0 nM.
Experiment procedure: The sample plate (GreinierBio, PN655209) was tested after a sensor (Protein A sensor) was pre-wetted in the dark for at least 10 min, and after confirming the accuracy, the test was performed according to the preset programs. KB buffer was added at 200 μL/well to the wells of columns 1, 10 and 12 of sample plate 1; the glycine solution (0.01 M, pH 2.0) was added to the wells of column 11; the prepared sample solution was added to the wells of columns 2-8 (5 replicate wells for one sample); and P17-His was sequentially added to the wells of column 9 in a descending order of the concentration.
On the technique in general: Biolayer interferometry detects binding as a change in optical thickness at a sensor tip.

Test [5] deals with T4, cynomolgus monkey CD40 expressed on the cell surface (cynomolgus monkey, UniProt G7PG38 21-278).
T4 construct: also called CHO-K-cynoCD40 cells
The experiment in a line: flow cytometry on CHO-K-cynoCD40 cells, APC anti-human IgG Fc secondary antibody. On the procedure:
(§2) To confirm the binding activity and cross-reactivity of the full-length anti-CD40 antibody prepared in example 1.4 of the present invention to CD40, CHO-K-huCD40 cells or CHO-K-cynoCD40 cells were seeded into a 96-well plate at 1.0×10⁵ cells/well. 100 μL of diluted anti-CD40 candidate antibody prepared in example 1.4 was added to the 96-well plate. […] Then, the cells were washed, and the binding of the full-length anti-CD40 antibody to CD40 molecules expressed on the cell was detected by flow cytometry.

The target in test [6] is T1, human CD40 expressed on the cell surface. The experiment in a line: flow cytometry on CHO-K-huCD40 cells, APC anti-human IgG secondary antibody. On the procedure: as §1
This is another data set of the same source.

Test [7] concerns the target T2, full-length mouse CD40 expressed on …. The experiment in a line: flow cytometry on CHO-K-mouseCD40 cells, FITC anti-human IgG Fc secondary antibody. On the procedure:
Similarly to example 1.3, CHO-K cells expressing full-length mouse CD40 (Uniprot: P27512) (hereinafter also referred to as “CHO-K-mouseCD40 cells”) were prepared. The cross-reactivity of the candidate C8 full-length anti-CD40 antibody prepared in example 1.4 to mouse CD40 was tested using the CHO-K-mouseCD40 cells. The CHO-K-mouseCD40 cells were seeded into a 96-well plate at 1.0×10⁵ cells/well. 100 μL of diluted anti-CD40 candidate antibody and two control antibodies (Dacetuzumab and APX005) were added to the 96-well plate, respectively. […] The cells were then washed and tested by flow cytometry.
The source holds these as a separate data set.

Test [8] addresses T1, human CD40 expressed on the cell surface. The experiment in a line: flow cytometry on CHO-K-huCD40 cells, APC anti-human IgG Fc secondary antibody. The procedure: as §2
The target of test [9] is T4, cynomolgus monkey CD40 expressed on the …. The experiment in a line: flow cytometry on CHO-K-cynoCD40 cells, APC anti-human F(ab')2 secondary antibody. The procedure: The CHO-K-huCD40 cells or CHO-K-cynoCD40 cells were seeded into a 96-well plate at 1.0×10⁵ cells/well, and diluted C8 anti-CD40 Fab candidate molecules were added. […] Then, the cells were washed, and the binding of the C8 anti-CD40 Fab candidate molecules to CD40 molecules expressed on the cell surface was detected by flow cytometry (Beckman Coulter).

Test [10] has as its target T5, P17-Fc fusion protein (human CD40 extracellular domain fused to human IgG1 Fc) (human, UniProt P25942 21-193, limits assumed).
T5 construct: CD40 ECD at the N-terminus of the human IgG1 Fc; expressed in CHO-K cells; also called CD40 ECD-Fc fusion protein; CD40 antigen P17-Fc; not shown: human IgG1 Fc fragment
The experiment in a line: ELISA of Fab on P17-Fc. Background: ELISA stands for enzyme-linked immunosorbent assay.

Data on four molecules can be found in patent publication US20240218071A1 (ANHUI BIOX VISION BIOLOGICAL TECHNOLOGY, published 2024).

Residue numbers refer to the chain shown, from its start. Like-named read-outs stand apart in the source and are kept apart here.

T1 sequence (P25942 21-277): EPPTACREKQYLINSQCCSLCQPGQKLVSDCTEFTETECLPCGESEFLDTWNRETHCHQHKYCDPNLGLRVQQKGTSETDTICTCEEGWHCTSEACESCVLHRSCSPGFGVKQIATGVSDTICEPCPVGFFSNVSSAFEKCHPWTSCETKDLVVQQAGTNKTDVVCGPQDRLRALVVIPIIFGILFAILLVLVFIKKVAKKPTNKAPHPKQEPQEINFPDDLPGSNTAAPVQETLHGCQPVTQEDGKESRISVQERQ
T3 sequence (P25942 other isoform, or with tags, fused parts or gaps limits assumed): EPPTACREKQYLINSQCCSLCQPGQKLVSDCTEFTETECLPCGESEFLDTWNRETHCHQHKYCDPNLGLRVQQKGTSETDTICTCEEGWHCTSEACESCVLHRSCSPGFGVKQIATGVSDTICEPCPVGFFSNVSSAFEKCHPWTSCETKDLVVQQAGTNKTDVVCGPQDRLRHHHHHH
T4 sequence (G7PG38 entry or part of it limits assumed): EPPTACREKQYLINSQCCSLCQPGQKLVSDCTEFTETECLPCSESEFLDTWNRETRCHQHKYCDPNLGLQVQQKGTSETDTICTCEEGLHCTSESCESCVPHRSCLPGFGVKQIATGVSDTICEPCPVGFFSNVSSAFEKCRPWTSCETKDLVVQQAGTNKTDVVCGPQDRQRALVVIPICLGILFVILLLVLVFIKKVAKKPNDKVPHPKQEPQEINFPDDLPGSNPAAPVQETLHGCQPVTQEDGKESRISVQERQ
T2 sequence (P27512 20-289): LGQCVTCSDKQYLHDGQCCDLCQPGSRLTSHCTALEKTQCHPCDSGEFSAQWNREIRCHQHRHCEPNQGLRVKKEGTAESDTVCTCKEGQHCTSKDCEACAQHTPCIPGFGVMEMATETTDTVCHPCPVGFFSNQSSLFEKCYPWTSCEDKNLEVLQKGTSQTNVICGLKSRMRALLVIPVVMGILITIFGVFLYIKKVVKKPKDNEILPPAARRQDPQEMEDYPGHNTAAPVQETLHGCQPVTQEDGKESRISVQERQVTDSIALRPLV
T5 sequence (P25942 21-193 limits assumed): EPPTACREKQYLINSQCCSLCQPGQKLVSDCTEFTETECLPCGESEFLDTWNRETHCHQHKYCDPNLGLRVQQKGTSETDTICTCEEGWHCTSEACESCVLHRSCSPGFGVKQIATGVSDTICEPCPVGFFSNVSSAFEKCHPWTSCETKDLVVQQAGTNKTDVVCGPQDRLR

B1: C8-11 antibody (antibody, V domains shown)
VH: EVQLLESGGGLVRPGGSLRLSCAASGFTPGSYEMNWVRQAPGKGLEWVSYISSAGETTDYADSVKGRFTVSRDNSKNLLYLQMNSLRAEDTAVYYCARDVFFFDSSGDNGAYGMDVWGQGTMVTVSS
VL: DIQLTQSPSSLTASVGDRVTITCRSSQGIRSSLAWYQQKPGKPPKLLIYGASSLLGGVPSRFSGSGSGTDFTLTISSLQPEDFATYYCQQLNSFPSTFGQGTKLEIK
Turning to B1, the EC50 (read off the curve) (as a rule, the concentration needed to bring the measured effect to its halfway point) in test [1] was around 2 µg/mL. Also, the binding result in test [2] was “binds”. The “CD95 expression on Ramos cells without crosslinking agent (FACS)” value in test [3] is around 10 times weaker than APX005. Also, in test [4], binding was characterised by a dissociation constant (Kd) of 9.24 nM; the koff (commonly a measure of how fast the partners let go of each other) was found to be 0.0148 s⁻¹; the kon (as a rule, the second-order rate constant of association) is 1.6e+06 M⁻¹ s⁻¹.

B2: C8 clone anti-CD40 full-length antibody (antibody, human IgG1, kappa, V domains shown)
VH: B1 VH with P29F, A54S
VL: DIQLTQSPSSLTASVGDRVTITCRSSQGIRSSLAWYQQKPGKPPKLLIYGASSLEGGVPSRFSGSGSGTDFTLTISSLQPEDFATYYCQQLNSFPSTFGQGTKLEIKR
notes: also called C8-WT; C8 parent antibody
B2: the binding result in test [5] and in test [7] was “binds” throughout. The “EC50 (read off the curve)” value in test [1] is around 0.9 µg/mL; in [6], around 0.8 µg/mL; in test [8], around 0.8 µg/mL. The Kd (commonly the equilibrium constant for the complex coming apart) in test [4] stood at 19.3 nM. The koff in test [4] came out at 0.0164 s⁻¹. In test [4], this molecule registered a kon of 853000 M⁻¹ s⁻¹.

B3: C8 clone anti-CD40 Fab molecule (Fab, V domains shown)
VH: B1 VH with P29F, A54S
VL: B1 VL with L55E
notes: Expressed as a Fab fragment in CHO-K cells; also called C8 Fab; C8 clone Fab
Take B3: the binding result in test [9] is given as “binds”. In addition, the EC50 (in general, the concentration needed to bring the measured effect to its halfway point) in test [10] was around 0.476 µg/mL.

B4: Dacetuzumab (antibody, V domains shown)
VH: EVQLVESGGGLVQPGGSLRLSCAASGYSFTGYYIHWVRQAPGKGLEWVARVIPNAGGTSYNQKFKGRFTLSVDNSKNTAYLQMNSLRAEDTAVYYCAREGIYWWGQGTLVTVSS
VL: DIQMTQSPSSLSASVGDRVTITCRSSQSLVHSNGNTFLHWYQQKPGKAPKLLIYTVSNRFSGVPSRFSGSGSGTDFTLTISSLQPEDFATYFCSQTTHVPWTFGQGTKVEIKR
For the molecule B4, the “EC50 (read off the curve)” value in [8] is around 0.8 µg/mL.
